Patent publication US20260285971 (published 2026)

T1: human GPRC5D (human)
T1 chain: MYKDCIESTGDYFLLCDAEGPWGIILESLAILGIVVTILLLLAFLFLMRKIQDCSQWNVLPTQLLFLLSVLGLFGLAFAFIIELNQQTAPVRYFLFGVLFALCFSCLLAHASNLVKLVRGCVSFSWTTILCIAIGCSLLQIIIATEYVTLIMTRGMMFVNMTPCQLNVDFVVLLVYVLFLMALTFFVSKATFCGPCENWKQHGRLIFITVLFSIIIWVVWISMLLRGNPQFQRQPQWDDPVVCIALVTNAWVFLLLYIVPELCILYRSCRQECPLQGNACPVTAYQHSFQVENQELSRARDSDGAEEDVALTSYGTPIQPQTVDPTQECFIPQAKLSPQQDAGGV


Tests used:
[1] = target: T1, human GPRC5D; test: FACS RPMI-8226
[2] = target: T1, human GPRC5D; test: FACS NCI-H929
[3] = target: T1, human GPRC5D; test: ELISA
[4] = target: T1, human GPRC5D; test: FACS molp-8
[5] = target: T1, human GPRC5D; test: FACS RPMI-8226
[6] = target: T1, human GPRC5D; test: FACS NCI-H929
[7] = target: T1, human GPRC5D; test: ELISA
[8] = target: T1, human GPRC5D; test: FACS molp-8
[9] = target: T1, human GPRC5D; test: FACS RPMI-8226
[10] = target: T1, human GPRC5D; test: FACS molp-8
[11] = target: T1, human GPRC5D; test: ELISA
[12] = target: T1, human GPRC5D; test: FACS NCI-H929

Binder | EC50 [5] | EC50 [6] | EC50 [7] | EC50 [8] | EC50 [9] | EC50 [10] | EC50 [11] | EC50 [12] | also measured
Lab03-huFc (antibody, V domains shown) VH: DVQLQASGGGSVQAGGSLRLSCAASGDTANCIGWFRQAPGKGREGVAAIYTGLGNTYYANSAKGRFTIAQDNAKNTVYLQMNSLKPEDSAMYYCAAGGILGRFCSRYFGQGTQVTVSS |  |  |  |  |  |  |  |  | EC50 [1]: 0.603 nM; EC50 [2]: 0.909 nM; EC50 [3]: 0.0319 nM; EC50 [4]: 0.599 nM
HAB02-H2 (antibody, V domains shown) VH: EVQLVESGGGVVQPGRSLRLSCAASGYLYMGWFRQAPGKEREGVAVIVTQSGLTYYADSVKGRFTISQDNSKNRLYLQMNSLRAEDTAVYYCAAKSRLGWTLSPSAYNYWGRGTLVTVSS | 3.56 nM | 0.299 nM | 0.0381 nM | 0.742 nM |  |  |  |  | 
HAB02-H3 (antibody, V domains shown) VH: EVQLVESGGGVVQPGRSLRLSCAASGYLYMGWFRQAPGKEREGVAAIVTQSGLTYYADSVKGRFTISQDNSKNRLYLQMNSLRAEDTAVYYCAAKSRLGWTLSPSAYNYWGRGTLVTVSS | 1.88 nM | 0.51 nM | 0.042 nM | 1.6 nM |  |  |  |  | 
HAB02-H4 (antibody, V domains shown) VH: EVQLVESGGGVVQPGRSLRLSCAASGYLYMGWFRQAPGKEREGVAAIVTQSGLTGYADSVKGRFTISQDNSKNRLYLQMNSLRAEDTAVYYCAAKSRLGWTLSPSAYNYWGRGTLVTVSS | 47.9 nM | 0.438 nM | 0.0395 nM | 1.3 nM |  |  |  |  | 
HAB02-H8 (antibody, V domains shown) VH: EVQLVESGGGVVQPGRSLRLSCAASGYLYMGWFRQAPGKEREGVAAIVTQSGLTGYADSVKGRFTISQDNSKNRIYLQMNSLRAEDTAVYYCAAKSRLGWTLSPSAYNYWGRGTLVTVSS | 1.5 nM | 0.401 nM | 0.0409 nM | 1.06 nM |  |  |  |  | 
Lab04-huFc (antibody, V domains shown) VH: EVQLQASGGGSVQAGGSLRLSCVASGFPYSTSRVGWFRQAPGKEREGVATIVPGTGYTYYADSVKGRFTISQDSAKNTVYLQMNSLKPEDTAVYYCAAGDRRLLLNLLAPADYFYWGQGTQVTVSS |  |  |  |  | 2.49 nM | 1.97 nM | 0.0353 nM | 0.915 nM | 
HAB04-H7 (antibody, V domains shown) VH: EVQLVASGGGLVQPGGSLRLSCAASGFPYSTSRMGWFRQAPGKEREGVATIVPGTGYTYYVDSVKGRFTISQDNAKNSLYLQMNSLRAEDTAVYYCAAGDRRLLLNLLAPADYFYWGQGTMVTVSS |  |  |  |  | 2.42 nM | 2.67 nM | 0.0533 nM | 1.34 nM | 
HAB04-H3 (antibody, V domains shown) VH: EVQLVESGGGLVQPGGSLRLSCAASGFPYSTSRMGWFRQAPGKEREGVATIVPGTGYTYYVDSVKGRFTISQDNAKNSLYLQMNSLRAEDTAVYYCAAGDRRLLLNLLAPADYFYWGQGTMVTVSS |  |  |  |  | 2.81 nM | 3.04 nM | 0.034 nM | 1.35 nM | 
HAB04-H5 (antibody, V domains shown) VH: EVQLVESGGGLVQPGGSLRLSCAASGFPYSTSRVGWFRQAPGKEREGVATIVPGTGYTYYVDSVKGRFTISQDNAKNSVYLQMNSLRAEDTAVYYCAAGDRRLLLNLLAPADYFYWGQGTMVTVSS |  |  |  |  | 2.05 nM | 2.8 nM | 0.0333 nM | 1.02 nM | 
HAB04-H4 (antibody, V domains shown) VH: EVQLVESGGGLVQPGGSLRLSCAASGFPYSTSRMGWFRQAPGKEREGVATIVPGTGYTYYVDSVKGRFTISQDSAKNSLYLQMNSLRAEDTAVYYCAAGDRRLLLNLLAPADYFYWGQGTMVTVSS |  |  |  |  | 2.29 nM | 2.71 nM | 0.0382 nM | 1.41 nM | 
HAB04-H8 (antibody, V domains shown) VH: EVQLQESGGGLVQPGGSLRLSCVASGFPYSTSRMGWFRQAPGKEREGVATIVPGTGYTYYVDSVKGRFTISQDNAKNSLYLQMNSLRAEDTAVYYCAAGDRRLLLNLLAPADYFYWGQGTMVTVSS |  |  |  |  | 1.68 nM | 1.74 nM | 0.0311 nM | 1.28 nM | 
HAB04-H14 (antibody, V domains shown) VH: EVQLVASGGGLVQPGGSLRLSCAASGFPYSTSRMGWFRQAPGKEREGVATIVPGTGYTYYADSVKGRFTISQDNAKNSLYLQMNSLRAEDTAVYYCAAGDRRLLLNLLAPADYFYWGQGTMVTVSS |  |  |  |  | 1.64 nM | 1.35 nM | 0.0349 nM | 0.711 nM | 
HAB04-H10 (antibody, V domains shown) VH: EVQLVASGGGLVQPGGSLRLSCAASGFPYSTSRMGWFRQAPGKEREGVATIVPGTGYTYYVDSVKGRFTISQDSAKNSLYLQMNSLRAEDTAVYYCAAGDRRLLLNLLAPADYFYWGQGTMVTVSS |  |  |  |  | 3.05 nM | 4.3 nM | 0.0481 nM | 1.21 nM | 
HAB03-H11 (antibody, V domains shown) VH: DVQLVESGGGLVQPGGSLRLSCAASGDTANCIGWFRQAPGKGREGVAAIYTGLGNTYYANSAKGRFTISQDNAKNSVYLQMNSLRAEDTAVYYCAAGGILGRFCSRYFGQGTMVTVSS |  |  |  |  |  |  |  |  | EC50 [1]: 0.627 nM; EC50 [2]: 1.12 nM; EC50 [3]: 0.0338 nM; EC50 [4]: 0.812 nM
HAB03-H8 (antibody, V domains shown) VH: EVQLVESGGGLVQPGGSLRLSCAASGDTANCIGWFRQAPGKGLEGVAAIYTGLGNTYYANSAKGRFTISQDNAKNSVYLQMNSLRAEDTAVYYCAAGGILGRFCSRYFGQGTMVTVSS |  |  |  |  |  |  |  |  | EC50 [1]: 0.66 nM; EC50 [2]: 1.41 nM; EC50 [3]: 0.0462 nM; EC50 [4]: 1.22 nM
HAB03-H9 (antibody, V domains shown) VH: EVQLVESGGGLVQPGGSLRLSCAASGDTASCIGWFRQAPGKGREGVAAIYTGLGNTYYANSAKGRFTISQDNAKNSVYLQMNSLRAEDTAVYYCAAGGILGRFCSRYFGQGTMVTVSS |  |  |  |  |  |  |  |  | EC50 [1]: 0.777 nM; EC50 [2]: 0.895 nM; EC50 [3]: 0.0326 nM; EC50 [4]: 0.849 nM
HAB03-H10 (antibody, V domains shown) VH: EVQLVESGGGLVQPGGSLRLSCAASGDTANCIGWFRQAPGKGREGVAAIYTGLGNTYYANSAKGRFTISRDNAKNSVYLQMNSLRAEDTAVYYCAAGGILGRFCSRYFGQGTMVTVSS |  |  |  |  |  |  |  |  | EC50 [1]: 1.43 nM; EC50 [2]: 0.944 nM; EC50 [3]: 0.0324 nM; EC50 [4]: 0.762 nM
HAB03-H12 (antibody, V domains shown) VH: EVQLVASGGGLVQPGGSLRLSCAASGDTANCIGWFRQAPGKGREGVAAIYTGLGNTYYANSAKGRFTISQDNAKNSVYLQMNSLRAEDTAVYYCAAGGILGRFCSRYFGQGTMVTVSS |  |  |  |  |  |  |  |  | EC50 [1]: 51.1 nM; EC50 [2]: 0.808 nM; EC50 [3]: 0.0307 nM; EC50 [4]: 0.642 nM

Further lines, with some results ahead:

EC50 [5] | EC50 [6] | EC50 [7] | EC50 [8] | EC50 [9] | EC50 [10] | EC50 [11] | EC50 [12] | Binder | also measured
1.75 nM | 0.672 nM | 0.053 nM | 0.875 nM |  |  |  |  | Lab02-huFc (antibody, V domains shown) VH: DVQLQASGGGSVQAGESLRLSCAASGYLYMGWFRQAPGKEREGVAAIVTQSGLTGYADSVKGRFTISQDNAENRIYLQMNSLKPEDTAMYYCAAKSRLGWTLSPSAYNYWGRGTQVTVSS | 
0.257 nM | 0.22 nM | 0.0396 nM | 0.547 nM |  |  |  |  | HAB02-H7 (antibody, V domains shown) VH: EVQLQASGGGVVQPGRSLRLSCAASGYLYMGWFRQAPGKEREGVAAIVTQSGLTGYADSVKGRFTISQDNSKNRLYLQMNSLRAEDTAVYYCAAKSRLGWTLSPSAYNYWGRGTLVTVSS | 
10.2 nM | 0.317 nM | 0.0362 nM | 1.54 nM |  |  |  |  | HAB02-H6 (antibody, V domains shown) VH: DVQLVESGGGVVQPGRSLRLSCAASGYLYMGWFRQAPGKEREGVAAIVTQSGLTGYADSVKGRFTISQDNSKNRLYLQMNSLRAEDTAVYYCAAKSRLGWTLSPSAYNYWGRGTLVTVSS | 
3.72 nM | 0.312 nM | 0.0405 nM | 0.602 nM |  |  |  |  | HAB02-H1 (antibody, V domains shown) VH: EVQLVESGGGVVQPGRSLRLSCAASGYLYMGWFRQAPGKEREGVAVIVTQSGLTYYADSVKGRFTISRDNSKNRLYLQMNSLRAEDTAVYYCAAKSRLGWTLSPSAYNYWGRGTLVTVSS | 
1.76 nM | 0.501 nM | 0.0406 nM | 1.06 nM |  |  |  |  | HAB02-H5 (antibody, V domains shown) VH: EVQLVESGGGVVQPGRSLRLSCAASGYLYMGWFRQAPGKEREGVAAIVTQSGLTGYADSVKGRFTISQDNAKNRLYLQMNSLRAEDTAVYYCAAKSRLGWTLSPSAYNYWGRGTLVTVSS | 
